T1: VEGFR-3-Fc (UniProt P35916 25-328)
T1 construct: domain: first three Ig domains; conditioned supernatant of 293T cells; also called VEGFR-3-Fc fusion protein; not shown: Fc fragment of the pIg vector
T1 sequence (looked up): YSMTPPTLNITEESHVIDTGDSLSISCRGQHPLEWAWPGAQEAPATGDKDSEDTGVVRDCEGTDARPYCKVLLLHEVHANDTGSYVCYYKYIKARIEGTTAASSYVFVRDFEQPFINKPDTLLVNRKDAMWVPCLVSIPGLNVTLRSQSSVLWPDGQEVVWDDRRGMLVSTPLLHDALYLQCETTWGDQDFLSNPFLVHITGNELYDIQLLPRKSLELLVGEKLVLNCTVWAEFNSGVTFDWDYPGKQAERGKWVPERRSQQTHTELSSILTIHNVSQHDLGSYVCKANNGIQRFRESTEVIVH


What was measured:
Test in all cases: receptor-Fc IP
VEGFR-2-Fc = biological target: T2, VEGFR-2-Fc (UniProt P35968 20-322)
T2 construct: domain: first 3 Ig domains; conditioned supernatant of 293T cells; also called VEGFR-2-Fc fusion protein; not shown: Fc fragment of the pIg vector
Experimental: (§1) The binding assay procedure was identical to the immunoprecipitation using pentahistidine antibody described in Example 2, apart from the composition of the immunoprecipitation (IP) mixes. The IP mixes used for the receptor binding analysis were as follows: For VEGFR-1 binding assays, the IP mix was phosphate buffered saline (PBS) containing 1.5% BSA, 0.06% Tween 20, 3 μg/ml heparin and 400 ng/ml VEGFR-1-Fc fusion protein (100 μl of this IP mix was added to 200 μl of sample supernatant); for VEGFR-2 binding assays, the IP mix was 82% conditioned cell supernatant from 293T cells transiently expressing VEGFR-2-Fc fusion protein in mixture with 18% of a PBS solution that contained 5% BSA, 0.2% Tween 20, and 10 μg/ml heparin (250 μl of IP mix was added to 200 μl of sample supernatant); and for VEGFR-3 binding assays, the IP mix was 82% conditioned cell supernatant from 293T cells transiently expressing VEGFR-3-Fc fusion protein, 18% of PBS containing 5% BSA, 0.2% Tween 20, and 10 μg/ml heparin (250 μl of IP mix was added to 200 μl of sample supernatant).

VEGFR-1-Fc = biological target: T3, VEGFR-1-Fc (UniProt P17948 27-338)
T3 construct: domain: first three Ig domains; expressed in Drosophila S2 cells, purified on Protein A sepharose; also called VEGFR-1-Fc fusion protein; not shown: Fc fragment from the Signal-pIgPlus vector
Experimental: as §1

VEGFR-3-Fc = biological target: T1, VEGFR-3-Fc
Experimental: as §1

T3 sequence (P17948 27-338): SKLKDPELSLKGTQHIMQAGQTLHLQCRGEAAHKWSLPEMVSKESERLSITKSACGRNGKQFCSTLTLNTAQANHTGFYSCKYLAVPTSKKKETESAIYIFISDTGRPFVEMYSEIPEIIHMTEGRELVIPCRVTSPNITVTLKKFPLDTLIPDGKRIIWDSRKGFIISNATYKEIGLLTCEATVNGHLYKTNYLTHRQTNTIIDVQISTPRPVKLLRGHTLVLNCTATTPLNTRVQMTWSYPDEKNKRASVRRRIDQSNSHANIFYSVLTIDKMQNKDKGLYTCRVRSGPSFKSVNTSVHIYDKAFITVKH
T2 sequence (P35968 20-322): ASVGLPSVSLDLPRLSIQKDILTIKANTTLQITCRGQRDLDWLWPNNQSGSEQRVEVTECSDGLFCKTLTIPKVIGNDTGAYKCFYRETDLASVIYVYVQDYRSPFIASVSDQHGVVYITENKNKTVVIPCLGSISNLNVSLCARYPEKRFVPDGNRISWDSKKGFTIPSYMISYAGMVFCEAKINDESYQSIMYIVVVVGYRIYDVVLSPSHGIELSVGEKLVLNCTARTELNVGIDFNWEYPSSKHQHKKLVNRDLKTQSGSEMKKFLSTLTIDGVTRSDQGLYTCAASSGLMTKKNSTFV

Binder	binding result (VEGFR-2-Fc)	binding result (VEGFR-1-Fc)	binding result (VEGFR-3-Fc)
22-2 (ligand) AHYNTEILKSIDNEWRKTQCMPREVCIDVGKEFGVATNTFFKPPCVSVYRCGGCCNDEGLECMNTSTSYLSKTLFEIKPHQGQHIGEMSFLQHNKCECRPKKD	binds	no binding	binds
22-14 (ligand) AHYNTEILKSIDNEWRKTQCMPREVCIDVGKEFGVATNTFFKPPCVSVYRCGGCCNDEGLECMNTSTSYLSKTLFEITVPLSQGPKPVTISFANHTSCRCMSKLD	binds	no binding	binds
23-14 (ligand) AHYNTEILKSIDNEWRKTQCMPREVCIDVGKEYPDEIEYIFKPPCVSVYRCGGCCNDEGLECMNTSTSYLSKTLFEITVPLSQGPKPVTISFANHTSCRCMSKLD	binds	no binding	no binding
72-16 (ligand) GQNHHEVVKSIDNEWRKTQCMPREVCIDVGKEFGVATNTFFKPPCVSVYRCGGCCNSEGLQCMNTSTSYLSKTLFEITVPLSQGPKPVTISFANHTSCRCMSKLD	binds	no binding	binds
74-14 (ligand) GQNHHEVVKSIDNEWRKTQCMPREVCIDVGKEFGVATNTFFKPSCVPLMRCGGCCNDEGLECMNTSTSYLSKTLFEITVPLSQGPKPVTISFANHTSCRCMSKLD	no binding	no binding	no binding
52-14 (ligand) AHYNTEILKSIDNEWRKTQCMPIETLVDIFQEFGVATNTFFKPPCVSVYRCGGCCNDEGLECMNTSTSYLSKTLFEITVPLSQGPKPVTISFANHTSCRCMSKLD	no binding	no binding	binds
53-14 (ligand) AHYNTEILKSIDNEWRKTQCMPIETLVDIFQEYPDEIEYIFKPPCVSVYRCGGCCNDEGLECMNTSTSYLSKTLFEITVPLSQGPKPVTISFANHTSCRCMSKLD	no binding	no binding	no binding
21-14 (ligand) AHYNTEILKSIDNEWRKTQCMPREVCIDVGKEYPDEIEYIFKPSCVPLMRCGGCCNDEGLECMNTSTSYLSKTLFEITVPLSQGPKPVTISFANHTSCRCMSKLD	no binding	no binding	no binding
53-16 (ligand) AHYNTEILKSIDNEWRKTQCMPIETLVDIFQEYPDEIEYIFKPPCVSVYRCGGCCNSEGLQCMNTSTSYLSKTLFEITVPLSQGPKPVTISFANHTSCRCMSKLD	no binding	no binding	no binding
51-14 (ligand) AHYNTEILKSIDNEWRKTQCMPIETLVDIFQEYPDEIEYIFKPSCVPLMRCGGCCNDEGLECMNTSTSYLSKTLFEITVPLSQGPKPVTISFANHTSCRCMSKLD	no binding	no binding	no binding
21-16 (ligand) AHYNTEILKSIDNEWRKTQCMPREVCIDVGKEYPDEIEYIFKPSCVPLMRCGGCCNSEGLQCMNTSTSYLSKTLFEITVPLSQGPKPVTISFANHTSCRCMSKLD	no binding	no binding	no binding
72-14 (ligand) GQNHHEVVKSIDNEWRKTQCMPREVCIDVGKEFGVATNTFFKPPCVSVYRCGGCCNDEGLECMNTSTSYLSKTLFEITVPLSQGPKPVTISFANHTSCRCMSKLD	binds	no binding	binds
52-16 (ligand) AHYNTEILKSIDNEWRKTQCMPIETLVDIFQEFGVATNTFFKPPCVSVYRCGGCCNSEGLQCMNTSTSYLSKTLFEITVPLSQGPKPVTISFANHTSCRCMSKLD	binds	no binding	binds
23-12 (ligand) AHYNTEILKSIDNEWRKTQCMPREVCIDVGKEYPDEIEYIFKPPCVSVYRCGGCCNSEGLQCMNTSTSYLSKTLFEITVPLSQGPKPVTISFLQHNKCECRPKKD	binds	no binding	no binding
22-12 (ligand) AHYNTEILKSIDNEWRKTQCMPREVCIDVGKEFGVATNTFFKPPCVSVYRCGGCCNSEGLQCMNTSTSYLSKTLFEITVPLSQGPKPVTISFLQHNKCECRPKKD	binds	no binding	binds
22-10 (ligand) AHYNTEILKSIDNEWRKTQCMPREVCIDVGKEFGVATNTFFKPPCVSVYRCGGCCNDEGLECMNTSTSYLSKTLFEITVPLSQGPKPVTISFLQHNKCECRPKKD	binds	no binding	binds
23-10 (ligand, clone entry) AHYNTEILKSIDNEWRKTQCMPREVCIDVGKEYPDEIEYIFKPPCVSVYRCGGCCNDEGLECMNTSTSYLSKTLFEITVPLSQGPKPVTISFLQHNKCECRPKKD	binds	no binding	no binding

Further lines, results first:

binding result (VEGFR-2-Fc)	binding result (VEGFR-1-Fc)	binding result (VEGFR-3-Fc)	Binder
no binding	no binding	no binding	24-10 (ligand) AHYNTEILKSIDNEWRKTQCMPREVCIDVGKEFGVATNTFFKPSCVPLMRCGGCCNDEGLECMNTSTSYLSKTLFEITVPLSQGPKPVTISFLQHNKCECRPKKD
no binding	no binding	no binding	21-10 (ligand) AHYNTEILKSIDNEWRKTQCMPREVCIDVGKEYPDEIEYIFKPSCVPLMRCGGCCNDEGLECMNTSTSYLSKTLFEITVPLSQGPKPVTISFLQHNKCECRPKKD
no binding	no binding	no binding	24-14 (ligand) AHYNTEILKSIDNEWRKTQCMPREVCIDVGKEFGVATNTFFKPSCVPLMRCGGCCNDEGLECMNTSTSYLSKTLFEITVPLSQGPKPVTISFANHTSCRCMSKLD
no binding	no binding	no binding	24-16 (ligand) AHYNTEILKSIDNEWRKTQCMPREVCIDVGKEFGVATNTFFKPSCVPLMRCGGCCNSEGLQCMNTSTSYLSKTLFEITVPLSQGPKPVTISFANHTSCRCMSKLD
no binding	no binding	no binding	23-16 (ligand) AHYNTEILKSIDNEWRKTQCMPREVCIDVGKEYPDEIEYIFKPPCVSVYRCGGCCNSEGLQCMNTSTSYLSKTLFEITVPLSQGPKPVTISFANHTSCRCMSKLD
no binding	no binding	no binding	73-14 (ligand) GQNHHEVVKSIDNEWRKTQCMPREVCIDVGKEYPDEIEYIFKPPCVSVYRCGGCCNDEGLECMNTSTSYLSKTLFEITVPLSQGPKPVTISFANHTSCRCMSKLD
no binding	no binding	no binding	71-14 (ligand) GQNHHEVVKSIDNEWRKTQCMPREVCIDVGKEYPDEIEYIFKPSCVPLMRCGGCCNDEGLECMNTSTSYLSKTLFEITVPLSQGPKPVTISFANHTSCRCMSKLD

— patent publication US20080058263A1 (published 2008)
